{
  "source": "the nanobody polyreactivity screen of Harvey et al. (2022)",
  "data": [
    {"experiment": "yeast display, Sf9 membrane polyspecificity reagent, FACS + sequencing; frameworks hold sequencing errors", "method_in_brief": "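Using colony PCR, genes from sorted yeast display clones were amplified, then sequenced on MiSeq at 2 × 250 and filtered by CDR length. The clones had been stained with 10% biotinylated, detergent-solubilized Sf9 membrane reagent for 1 hour at 4 °C and sorted by FACS into low and high (top ~1%) gates on anti-HA and streptavidin fluorescence. Polyreactivity labels come from the gate of origin.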", "values": [
      {"sequence": "QVQLRESGGGLVQAGGSLSLSCAASGTIFYSRYMGWYRQAPGKEREFVASISSGGNTNYADSVKGRFTISRDNAKNTVYLQMNSLKPEDTAVYYCAVNTGLITTCPYWGQGTQVTVSS", "polyreactivity (PSR sort gate)": "high polyreactivity"},
      {"sequence": "QVQLVAGGGLVQAGGSLRLSCAASGSIFYSNAMGWYRQAPGKERELVAAISFSGGSTYYADSVKGRFTISRDNAKNTVYLQMNSLKPEDTAVYYCAAEFYKRKFGPFEYWGQGTQVTVSS", "polyreactivity (PSR sort gate)": "low polyreactivity"},
      {"sequence": "QVQLVASGGALVQAGGSLRLSCAASGFIFDYYAMGRYRPAPGKERELVAAITSRSGSTYYADSVKGRFTISRDNAKNTVYLQMNSLKPEDTAVYYCARRFKYGSTAWRFYYWGQGTQVTVSS", "polyreactivity (PSR sort gate)": "high polyreactivity"},
      {"sequence": "QVQLVASGGGLVQAGGSLRISSAASGGIFPQYAMGWYRQAPGKERELVAAISRRGGSTYYADSVKGRFTISRDNAKNTVYLQMNSLKPEDTAVYFCNAGGSDYGVSNKYNSWGQGTQVTVSS", "polyreactivity (PSR sort gate)": "high polyreactivity"},
      {"sequence": "QVQLVASGGGLVQAGGSLRLSCAASGRTSWYYAMGWYRHAPGKERELVAAITASGGSTYADSVKGRFTISRDNAKNTVYLQMNSLKPEDTAVYYCAAERPYSRVGYYYWGQGTQVTVSS", "polyreactivity (PSR sort gate)": "high polyreactivity"},
      {"sequence": "QVQLVASGGGLVQAGGSLRLSCAATGNTLGYYDMGWYRQAPGKERELVAGITFRGGRTYYADSVKGRFTISRDNPKNTVYLQMKSLKPEDTAVYYCAKRTRYSPGHDYWGLGTQVTVSS", "polyreactivity (PSR sort gate)": "high polyreactivity"},
      {"sequence": "QVQLVASGGGLVQAGGSLRLSSAASGFTFYGYAMGWYSQARGKERELVATIRRSTGSTYYADSVKGRFTISRDNAKNTVYLQINSLIPEDTAVYYCATRVWFPITSYDYWGQGTQVTVSS", "polyreactivity (PSR sort gate)": "low polyreactivity"},
      {"sequence": "QVQLVASGGGLVQAGGSVRLSCAASGFIVNYYAMGWYRQAPGKEGELLAAISSGGSTYYADSVKGRFTISRDNAKNTVYLQMNSLKPEDTAVYYCAARYTDLRLARYYYDYYYWGQGTQVTVSS", "polyreactivity (PSR sort gate)": "high polyreactivity"},
      {"sequence": "QVQLVASGGGLVQARGSLRLSCAASGRTFTYYAMGWYRQAPGKESELVAAISDSGGSTYYADSVKGRFTISRDNAKNTVYVQMNSLKPEDTAVYYCAAYRYVGPWTDVGSPDYDDWGQGTQVTVSS", "polyreactivity (PSR sort gate)": "low polyreactivity"},
      {"sequence": "QVQLVASGGGLVQSGGSLRLSCAASGSTITWYAMGWYRQAPGKDRELVARISSGDRPNYADSVKGRFTISRDNAKNTVYLQMNSLKPEDTAVYYCNADYGQPSYYDDGDYWGQGTQVTVSS", "polyreactivity (PSR sort gate)": "low polyreactivity"},
      {"sequence": "QVQLVDSAGGLVHAGGSLRLSCAASGLTFYSNTMGWYRPPPGKERELVAGISWGGDTTYYADSVKGRFTISRDNAKNTVYLQMNSLKPEDTAVYYCAADRSYWRHRYSYDYWGQGTQVTVSS", "polyreactivity (PSR sort gate)": "low polyreactivity"},
      {"sequence": "QVQLVDSAGGLVQAGGSLRLSCAASGITFGYYAMGWYRQAPGKERELVAAITSSGSTYYADSVKGRFTISRDNAKNTVYLQMNSLNPEDTAVYYCAARSWYSKYYYWGQGTQVTVSS", "polyreactivity (PSR sort gate)": "high polyreactivity"},
      {"sequence": "QVQLVDSAGGLVQAGGSLRLSCAASGLNYAIYAMGWYREAPGKERELVAAIRWSGASTYADSVKGRFTISRDNAKNTVYLQMNSLKPEDTAVYYCAADDLLDYDYWGQGTQVTVSS", "polyreactivity (PSR sort gate)": "low polyreactivity"},
      {"sequence": "QVQLVDSAGGLVQAGGSLRLSCAASGRTYVVNTRGWSRQAPGKERELVASISSGTTNYADSVKGRFTISRDNAKNTVYLQMNSLKPVDTAVYYCNTDGGDHPTARYGYWGQGTQVTVSS", "polyreactivity (PSR sort gate)": "high polyreactivity"},
      {"sequence": "QVQLVDSGAGLVQAGGSLRIICAASVRTFPRNAMGWYRQAPGKEMEMVAAITGSGGSTYYADSVKGRFTISRDNAKNTVYLQMNSLKPEDTAVYYCAARGPSRRRDGSDYWGQGTQVTVSS", "polyreactivity (PSR sort gate)": "high polyreactivity"},
      {"sequence": "QVQLVDSGAGLVQAGGSLSLTCAASGYTFYANAMGWYRQAPGKERELVAGINRSGSTYYADSVKGRFTISRDNAKNTVYLQMNSLKPEDTAVYYCATAWHRGVRGRTSGAFDYWGQGTQVTVSS", "polyreactivity (PSR sort gate)": "high polyreactivity"},
      {"sequence": "QVQLVDSGGCLVQAGRSLRLSCAASGSIYVPNAMGWYRQAPRKERDLVAGISRGGSTNYADSVKGRFTISRDNAKNSVYLQMKRLKPEDTAVYYCARDSRTIRYYAWFYPFRYDYWGQGTQVTVSS", "polyreactivity (PSR sort gate)": "low polyreactivity"},
      {"sequence": "QVQLVDSGGGIVQAGGSLRLSCAASGRIFKLYAMGRYRQAPGKERELVAAISKSGGNTYADSVKGRFTISRDNAKNSVYLQMNSLKPEDTAVYYCAATVQSTSDPFDYWGQGTQVTVSS", "polyreactivity (PSR sort gate)": "low polyreactivity"},
      {"sequence": "QVQLVDSGGGLDQAGGSLRLSCSASGIIFRGNAMGWYRQAPGKEREFVAAIALRGSRSYYADSVKGRFTISRDNAKNTVYLQMISLKPEDTAVYYCAARYYSEPNAYYYWGQGTQLTVSS", "polyreactivity (PSR sort gate)": "high polyreactivity"},
      {"sequence": "QVQLVDSGGGLVHAGGSLRLSCAASGSIFGANTMGWYRPAPGKERELVAGITSRARTYYADSVKGRFTISRDNANNNVYLQMNSLKPEDTAVYYCAAKYAWRRYGYWGQGTQVTVSS", "polyreactivity (PSR sort gate)": "high polyreactivity"},
      {"sequence": "QVQLVDSGGGLVHAGGSLRLSCAASGSSFTFYAMGWYRQAPGKERELVARISITGGSTYYADSVKGRFTISRDNAKNTVYLHMNSLKPEDTAVYYCAARYYGEHYDYWGQGTQVTVSS", "polyreactivity (PSR sort gate)": "low polyreactivity"},
      {"sequence": "QVQLVDSGGGLVHAGGSLRLSCASSGSIFNYYAMGCYRQPPGKVRELVAAISYRTGSTYYADSVKGRFTISRDNAKNTVYLQMTSLKPEDTSVYYCAADTRYGYGYWGQGTQVTVSS", "polyreactivity (PSR sort gate)": "high polyreactivity"},
      {"sequence": "QVQLVDSGGGLVHAGGSLRLSCHASGRTFRGNAMGWYRQAPGKESELVAAITRRTASTYYADSVKGRFTISRDNAKNTVYLQMNSLKPEDTAVYDCAADSYMKRPYYAGYYYWGQGTQVTVSS", "polyreactivity (PSR sort gate)": "high polyreactivity"},
      {"sequence": "QVQLVDSGGGLVKAGCSLRLSCAASGRIFNSYAMGLYRQAPGKETELVAAITWSGDRTNYADSVKGRFTISRDNANNTVYVQMNSLKPEDTAVYYCAADRVRSVRYGYWGKGTQVTVSS", "polyreactivity (PSR sort gate)": "low polyreactivity"},
      {"sequence": "QVQLVDSGGGLVKAGGSLRLSCAASGSTFAYYAMGWYRQAPGKERELVAAISWNGGSTYYADSVKGRFTISRDNAKNTVYLQMNSLKPEDTAVYYCAAEVYDYTYVVTFLYDYWGQGTQVTVSS", "polyreactivity (PSR sort gate)": "high polyreactivity"},
      {"sequence": "QVQLVDSGGGLVQAGCSLRISCAASGSIYTTYAMGWYRQAPGKERELVAALTRSGGRTYYADSVKGRFTISRDNAKYTVYLQMTSLKPEDTAVDDCNAYGYRTWWDDFKLDYWGQGTQVTVSS", "polyreactivity (PSR sort gate)": "high polyreactivity"},
      {"sequence": "QVQLVDSGGGLVQAGGRLRLTCAASGSTFGPNAMGWYSPAPGKERELVADISGGSTNYADSVKGRFTISRDNAKNTVYLQMKSLKPEDTAVYSCATDDHVEPVRRLYGYWGQGTQVTVSS", "polyreactivity (PSR sort gate)": "low polyreactivity"},
      {"sequence": "QVQLVDSGGGLVQAGGSHRLSCAASGIIFPTYDMGWYRPAPGKERELVAAITWSTGSTTYADSVKGRFTISRDNAKNTVYLQMNSLKPEDTAVYYCNKDSEGSGGEFDDWGQGTQVTVSS", "polyreactivity (PSR sort gate)": "low polyreactivity"},
      {"sequence": "QVQLVDSGGGLVQAGGSLGLSCAASGRSFTFNAMGWYRQAPGKERELVAAISSRGDGTYYADSVKGRFTISRDNAKNNVYLQMNSLKPEDTAVYYCARYPDDYYDWGYDYWGQGTQVTVSS", "polyreactivity (PSR sort gate)": "low polyreactivity"},
      {"sequence": "QVQLVDSGGGLVQAGGSLRFSCAASGSIFPVNVMGWYRQAPGKERELVADITSTGTYYADSVKGRFTISRDNAKNTDYLQMNSLKPEDTAVYYCAKAGGSWYRRYYYWGQGTQVTVSS", "polyreactivity (PSR sort gate)": "high polyreactivity"},
      {"sequence": "QVQLVDSGGGLVQAGGSLRISCAASGFIFSSYAMGWSRQAPAKERELVAAISSRGGSTYYADSVKGRFTISRDNAKNTVYLQMNSLKPEDTAVYYCNAYLSPYVQTSRYDDDYWGQGTQVTVSS", "polyreactivity (PSR sort gate)": "high polyreactivity"},
      {"sequence": "QVQLVDSGGGLVQAGGSLRISCAASGSIFPSNAMGWYRQAPGKERELVAAINRDGITNYADSVKGRFTISRDNAKNTVYLQMNSLKPEDTAVYYCAAEFAGQWWEYGYWGQGTQVTESS", "polyreactivity (PSR sort gate)": "low polyreactivity"},
      {"sequence": "QVQLVDSGGGLVQAGGSLRITCAASGFTFTRYALGGYRQAPGKERELVAVITSTAGSTYYADSVKGRFTISRDNAKNSVYLQMNSLKAEVTAVYFCAAESLVHGDVTLEEVVAQSYDYWGQGSQVTVSS", "polyreactivity (PSR sort gate)": "low polyreactivity"},
      {"sequence": "QVQLVDSGGGLVQAGGSLRLICAASGRNLYAYSMGWYRQAPWQQRELVGAITSGASTYYADSVKGRFTISRDNAKTNVYLQMKRLKPEDTAVYYCAKSVRYYKPGYDYWGQGTQVTVSS", "polyreactivity (PSR sort gate)": "low polyreactivity"},
      {"sequence": "QVQLVDSGGGLVQAGGSLRLNFAASGLTFDRYGMGWYRQGPGKERELVAAIDGSGTSTYYADSVKGRFTISRDNAKNTVYLQMNSLKPEDTAVYYCAAGALSWYDYWGQGTQVTVSS", "polyreactivity (PSR sort gate)": "low polyreactivity"},
      {"sequence": "QVQLVDSGGGLVQAGGSLRLRCAASGLTFYTYAMGWYRQAPGKERELVAANRWRGGRTYYADSVKGRFTISRDNAKNTVYLQMNSLKPDDTAVYYCAADYSTLYKYDYWGQGTQVTVSS", "polyreactivity (PSR sort gate)": "low polyreactivity"},
      {"sequence": "QVQLVDSGGGLVQAGGSLRLSCAASGFIFDLYAMGWYRQAPGKERELVAAITTSGGTTYYADSVKGRFTISRDNAKNTVYLQMNSLIPEDTAVYFCAARRYSWYYYWGQGTQVTVSS", "polyreactivity (PSR sort gate)": "high polyreactivity"},
      {"sequence": "QVQLVDSGGGLVQAGGSLRLSCAASGFIFGINAMGWYRQAPGKERELVSAISTGDRTNYADSVKRRFTISRDNAKNTVYLQMYSLKPEDTAVYYFAKDWRRNRPYEWTYDYWGQGTQVTVSS", "polyreactivity (PSR sort gate)": "low polyreactivity"},
      {"sequence": "QVQLVDSGGGLVQAGGSLRLSCAASGFIFQYYAMGWYRQAPGKEMGLVAAISFSGGSTYYADSVKGRFTISRDNAKNTVYLQMNSLKPEDTAVYYCAAEVYSVGDYSGHDYYWGQGTQVTVSS", "polyreactivity (PSR sort gate)": "low polyreactivity"},
      {"sequence": "QVQLVDSGGGLVQAGGSLRLSCAASGFTFFRYAMGWYRQAPGKERELVAAITSGGGRTYYADSVKGRFTISRDNAKNTVYLQMNSLNPEDTAVYYCAARVYFSFITPIKYNYWGQGTQVTVSS", "polyreactivity (PSR sort gate)": "high polyreactivity"},
      {"sequence": "QVQLVDSGGGLVQAGGSLRLSCAASGFTFNGYAMGWSRPAPGKEREFVAAISSSGGSTYYADSVKGRFTISRDNAKNTVYLQMNSLKPDDTAVYYCNAVGWRKKYDYWGQGTQVTVSS", "polyreactivity (PSR sort gate)": "high polyreactivity"},
      {"sequence": "QVQLVDSGGGLVQAGGSLRLSCAASGFTIPTYAMGWYRQAPGKERELVAAISGDGDSTYYADSVKGRFTISRDNAKNTVYLQMNSLKPEDTAVYYCAAEPNVYFSVFVLFPSDYWGQGTQVTVSS", "polyreactivity (PSR sort gate)": "low polyreactivity"},
      {"sequence": "QVQLVDSGGGLVQAGGSLRLSCAASGITFYVNAMGWYRQAPRKERELVASISTGGSTNYADSVKGRFTISRDNAKNTVYLQMNSLKPEDTAVYYCAARVDYHPSLRDYWGQGTQVTVSS", "polyreactivity (PSR sort gate)": "low polyreactivity"}
    ]}
  ]
}
